Results reported in FireProtDB (doi:10.1021/bi00014a029).

Conditions: Meleagris gallopavo, Thermal, Potassium phosphate/Potassium acetate 10 mM/10 mM/
[1] = pH 1.5, CD, reversible: yes (82%)
[2] = pH 1.99, DSC, reversible: yes (91%)
[3] = pH 2.1, CD, reversible: yes (89%)
[4] = pH 2.5, CD, reversible: yes (85%)
[5] = pH 2.52, DSC, reversible: yes (90%)
[6] = pH 2.56, DSC, reversible: yes (78%)
[7] = pH 3.46, DSC, reversible: yes (90%)
[8] = pH 3.48, DSC, reversible: yes (81%)
[9] = pH 3.94, DSC, reversible: yes (87%)
[10] = pH 4.51, DSC, reversible: yes (84%)
[11] = pH 4.96, DSC, reversible: yes (100%)

Ovomucoid wild type, P68390, sequence (P68390 whole entry): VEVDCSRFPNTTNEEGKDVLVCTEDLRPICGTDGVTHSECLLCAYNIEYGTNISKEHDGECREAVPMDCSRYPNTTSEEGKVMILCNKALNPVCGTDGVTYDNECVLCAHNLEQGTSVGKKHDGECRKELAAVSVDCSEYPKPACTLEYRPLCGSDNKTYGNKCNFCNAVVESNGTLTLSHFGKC

## Ovomucoid wild type, P68390
[1]
  Tm: 60.5 °C
  unfolding enthalpy (van 't Hoff): 40.9 kcal/mol
[2]
  Tm: 63.1 °C
  unfolding enthalpy (calorimetric): 44.2 kcal/mol
  unfolding enthalpy (van 't Hoff): 44.6 kcal/mol
[3]
  Tm: 62.7 °C
  unfolding enthalpy (van 't Hoff): 42.8 kcal/mol
[4]
  Tm: 66.2 °C
  unfolding enthalpy (van 't Hoff): 43.7 kcal/mol
[5]
  Tm: 68.5 °C
  unfolding enthalpy (calorimetric): 47.7 kcal/mol
  unfolding enthalpy (van 't Hoff): 49.2 kcal/mol
[6]
  Tm: 65.7 °C
  unfolding enthalpy (calorimetric): 45.4 kcal/mol
  unfolding enthalpy (van 't Hoff): 45.4 kcal/mol
[7]
  Tm: 78.7 °C
  unfolding enthalpy (calorimetric): 48.1 kcal/mol
  unfolding enthalpy (van 't Hoff): 49.6 kcal/mol
[8]
  Tm: 78.7 °C
  unfolding enthalpy (calorimetric): 50 kcal/mol
  unfolding enthalpy (van 't Hoff): 51 kcal/mol
pH 3.51, DSC
  Tm: 80.8 °C
  unfolding enthalpy (calorimetric): 55 kcal/mol
  unfolding enthalpy (van 't Hoff): 57.9 kcal/mol
[9]
  Tm: 85.7 °C
  unfolding enthalpy (calorimetric): 55.3 kcal/mol
  unfolding enthalpy (van 't Hoff): 52.7 kcal/mol
[10]
  Tm: 85.2 °C
  unfolding enthalpy (calorimetric): 57.4 kcal/mol
  unfolding enthalpy (van 't Hoff): 56.3 kcal/mol
[11]
  Tm: 87.8 °C
  unfolding enthalpy (calorimetric): 62.4 kcal/mol
